Measured values as given in doi:10.1101/2021.02.18.431788.

Biological target: Neurofibromin (NF1), full length, isoform 1 (human) (UniProt P21359)
Test: AUC

Neurofibromin (NF1), full length, isoform 1, P21359-2 1-2818
stoichiometry N: 2
